Results as given in patent US20200270125A1 (OMEROS, published 2020).

How the values were obtained:
[1] = molecular target: T1, recombinant human MASP-1A (S646A, CCP1-CCP2-SP fragment) (human, UniProt P48740 298-699, limits assumed); test: ELISA: recombinant MASP-1A (S646A, CCP1-CCP2-SP) coated directly on the plate, A450
T1 chain: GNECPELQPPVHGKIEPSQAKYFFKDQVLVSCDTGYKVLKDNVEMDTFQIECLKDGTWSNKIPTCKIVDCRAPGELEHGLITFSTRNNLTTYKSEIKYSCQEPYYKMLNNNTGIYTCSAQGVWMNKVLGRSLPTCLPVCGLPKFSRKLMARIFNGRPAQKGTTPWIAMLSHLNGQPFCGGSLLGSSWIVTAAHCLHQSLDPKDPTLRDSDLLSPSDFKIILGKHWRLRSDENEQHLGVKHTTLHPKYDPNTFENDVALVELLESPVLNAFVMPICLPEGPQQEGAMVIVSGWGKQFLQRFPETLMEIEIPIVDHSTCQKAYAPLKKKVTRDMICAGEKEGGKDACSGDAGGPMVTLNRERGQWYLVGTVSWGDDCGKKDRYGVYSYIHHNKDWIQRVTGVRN
Description: (§1) The plate was then washed (PBS-T, 0.05%) and the candidate MASP-3 antibodies were added followed by incubation for one hour at room temperature. The plate was washed (PBS-T, 0.05%) and a detection antibody was added (mouse anti-human kappa-HRP, SouthernBiotech #9230-05) for one hour at room temperature. After another wash (PBS-T, 0.05%) the plate was developed (5 minutes) with OPT EIA TMB (BD Biosciences #555214). Absorbance reading at A450 was measured using the Spectramax M5e plate reader.

[2] = molecular target: T2, human MASP-3 (construct not stated) (human); test: not described at this place
T2 construct: also called MASP-3 antigen
T2 chain: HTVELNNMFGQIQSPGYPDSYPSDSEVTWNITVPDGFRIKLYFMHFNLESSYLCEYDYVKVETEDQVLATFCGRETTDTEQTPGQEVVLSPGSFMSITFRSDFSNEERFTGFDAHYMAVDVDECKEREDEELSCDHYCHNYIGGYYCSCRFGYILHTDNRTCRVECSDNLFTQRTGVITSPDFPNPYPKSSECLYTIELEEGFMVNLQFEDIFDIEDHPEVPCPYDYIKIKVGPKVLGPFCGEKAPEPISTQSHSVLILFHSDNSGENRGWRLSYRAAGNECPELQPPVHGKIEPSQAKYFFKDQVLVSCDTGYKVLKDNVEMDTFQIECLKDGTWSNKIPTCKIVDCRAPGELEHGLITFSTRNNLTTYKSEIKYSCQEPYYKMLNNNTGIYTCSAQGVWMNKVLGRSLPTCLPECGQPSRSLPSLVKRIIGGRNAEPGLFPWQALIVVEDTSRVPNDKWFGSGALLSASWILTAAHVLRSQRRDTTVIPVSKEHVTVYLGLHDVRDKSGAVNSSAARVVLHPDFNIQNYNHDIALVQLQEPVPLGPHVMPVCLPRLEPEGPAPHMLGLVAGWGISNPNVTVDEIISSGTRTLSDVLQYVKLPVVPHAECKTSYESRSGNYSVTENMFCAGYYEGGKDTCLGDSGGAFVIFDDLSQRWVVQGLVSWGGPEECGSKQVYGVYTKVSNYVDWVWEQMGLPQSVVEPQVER

[3] = molecular target: T3, recombinant human MASP-2 (CCP1-CCP2-SP fragment) (human, UniProt O00187 298-686, limits assumed); test: ELISA: recombinant MASP-2 (CCP1-CCP2-SP) coated directly on the plate, A450
T3 construct: domain: CCP1-CCP2-SP fragment
T3 sequence (O00187 298-686 limits assumed): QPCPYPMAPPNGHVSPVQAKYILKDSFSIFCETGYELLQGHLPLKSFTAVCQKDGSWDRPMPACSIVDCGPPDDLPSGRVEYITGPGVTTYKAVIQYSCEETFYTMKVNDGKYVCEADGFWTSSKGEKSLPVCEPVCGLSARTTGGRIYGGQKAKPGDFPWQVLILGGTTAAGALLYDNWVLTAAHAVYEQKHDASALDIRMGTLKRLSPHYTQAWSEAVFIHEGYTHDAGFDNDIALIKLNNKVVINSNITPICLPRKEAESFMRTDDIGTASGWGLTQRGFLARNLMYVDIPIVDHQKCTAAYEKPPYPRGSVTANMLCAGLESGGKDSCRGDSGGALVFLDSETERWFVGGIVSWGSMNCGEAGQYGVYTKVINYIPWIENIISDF
Description: as §1

[4] = molecular target: T4, recombinant full-length mouse MASP-3 (mouse); test: sandwich ELISA, full-length mouse MASP-3 captured by αM3-259
T4 construct: Entry is with leader; also called mouse full length MASP-3
T4 chain: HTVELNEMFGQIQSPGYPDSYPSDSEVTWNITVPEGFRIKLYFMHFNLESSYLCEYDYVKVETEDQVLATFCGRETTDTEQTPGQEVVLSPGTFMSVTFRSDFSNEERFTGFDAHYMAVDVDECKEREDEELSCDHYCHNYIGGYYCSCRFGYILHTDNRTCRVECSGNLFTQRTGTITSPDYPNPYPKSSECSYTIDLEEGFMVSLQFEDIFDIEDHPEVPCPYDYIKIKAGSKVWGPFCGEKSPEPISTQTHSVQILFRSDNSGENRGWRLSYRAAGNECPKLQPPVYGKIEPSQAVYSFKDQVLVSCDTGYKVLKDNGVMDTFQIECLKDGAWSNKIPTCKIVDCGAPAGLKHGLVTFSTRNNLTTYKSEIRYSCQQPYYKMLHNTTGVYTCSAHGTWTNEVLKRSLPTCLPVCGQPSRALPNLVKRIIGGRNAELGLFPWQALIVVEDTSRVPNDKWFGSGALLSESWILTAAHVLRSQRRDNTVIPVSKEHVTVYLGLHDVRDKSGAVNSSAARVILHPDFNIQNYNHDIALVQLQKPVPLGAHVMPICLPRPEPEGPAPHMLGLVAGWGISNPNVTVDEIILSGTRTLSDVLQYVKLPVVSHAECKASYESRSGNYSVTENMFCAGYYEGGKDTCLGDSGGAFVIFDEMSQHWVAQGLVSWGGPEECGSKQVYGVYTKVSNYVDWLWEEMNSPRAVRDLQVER
Description: as §1

[5] = molecular target: T5, human MASP-3 CCP1-CCP2-SP fragment (human); test: sandwich ELISA, MASP-3 CCP1-CCP2-SP captured by αM3-259
T5 construct: limits of the assay construct are not restated; also called rMASP-3 (CCP1-CCP2-SP)
T5 chain: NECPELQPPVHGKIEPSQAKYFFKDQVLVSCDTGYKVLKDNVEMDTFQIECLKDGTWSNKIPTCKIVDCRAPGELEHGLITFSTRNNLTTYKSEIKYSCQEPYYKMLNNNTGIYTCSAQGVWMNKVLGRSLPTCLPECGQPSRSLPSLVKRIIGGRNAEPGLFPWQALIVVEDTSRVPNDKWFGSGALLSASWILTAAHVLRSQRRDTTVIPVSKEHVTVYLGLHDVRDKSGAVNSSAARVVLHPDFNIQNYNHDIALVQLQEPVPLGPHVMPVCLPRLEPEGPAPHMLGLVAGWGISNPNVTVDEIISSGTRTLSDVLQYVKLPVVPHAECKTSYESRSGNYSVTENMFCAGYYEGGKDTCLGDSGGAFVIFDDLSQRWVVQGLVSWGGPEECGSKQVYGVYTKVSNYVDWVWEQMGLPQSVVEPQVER
Description: as §1

[6] = molecular target: T2, human MASP-3 (construct not stated); test: ELISA, monovalent Fab

Binder | binding result [1] | binding affinity [2] [pM] | binding result [3] | EC50 [4] [nM] | EC50 [5] [nM] | EC50 [6] [nM]
MASP-3 mAb 11B6 (mouse-human chimeric IgG4) (antibody, V domains shown) VH: QVQLKQSGAELVKPGASVKMSCKASGYTFTTYPIEWMKQNHGKSLEWIGNFHPYNGDSKYNEKFKGKATLTVEKSSSTVYLELSRLPSADSAIYYCARRHYAASPWFAHWGQGTLVTVSS VL: DIVMTQSQKFMSTSVGDRVNVTCKASQNVGPTVAWYQQKPGQSPKALIYSASYRYSGVPDRFTGSGSGTDFTLTISNVHSEDLAEYFCQQYNSYPFTFGSGTKLEIKR | no binding (tested: about 20 nM (log10 about 1.3)) | ≤ 500 | no binding (tested: about 20 nM (log10 about 1.3)) | 0.066 | 0.06 | –
MASP-3 mAb 15D9 (mouse-human chimeric IgG4) (antibody, V domains shown) VH: QVQLKQSGTELMKPGASVNLSCKASGYTFTAYWIEWVKQRPGHGLEWIGEILPGSGTTNYNENFKDRATFTADTSSNTAYMQLSSLTSEDSAIYYCARSYYYASRWFAFWGQGTLVTVSS VL: DIVMTQSQKFMSTSIGDRVSVTCRASQNVGPNLAWYQQKPGQSPKALIYSASYRFSGVPDRFTGSGSGTDFTLTISNVQSEDLAEYFCQQYNRYPFTFGSGTKLEIKR | no binding (tested: about 20 nM (log10 about 1.3)) | ≤ 500 | no binding (tested: about 20 nM (log10 about 1.3)) | 0.092 | 0.074 | –
MASP-3 mAb 35C1 (mouse-human chimeric IgG4) (antibody, V domains shown) VH: QIQLVQSGPELKTPGETVKISCKASGYIFTSYGITWVKQAPGKGLKWMGWINTYSGVPTYADDFKGRFAFSLETSASTAYLQINNLKNEDTTTYFCTRGGDALDYWGQGTSVTVSS VL: not shown | no binding (tested: about 20 nM (log10 about 1.3)) | ≤ 500 | no binding (tested: about 20 nM (log10 about 1.3)) | 0.209 | 0.091 | –
MASP-3 mAb 49C11 (mouse-human chimeric IgG4) (antibody, V domains shown) VH: EVQLQQSGPVLVKPGASGKMSCKASGYKFTDYYMIWVKQSHGKSLEWIGVIKIYNGGTSYNQKFKGKATLTVDKSSSTAYMELNSLTSEDSAVYYCARGPSLYDYDPYWYFDVWGTGTTVTVSS VL: DVLMTQTPLSLPVSLGDQASFSCRSSQSLIHSNGNTYLHWYLQKPGQSPKLLIYKVSNRFSGVPDRFSGSGSGTDFTLKISRVEAEDLGVYFCSQSTHVPWTFGGGTKLEIKR | no binding (tested: about 20 nM (log10 about 1.3)) | ≤ 500 | no binding (tested: about 20 nM (log10 about 1.3)) | 0.064 | 0.069 | –
MASP-3 mAb 1B11 (mouse-human chimeric IgG4) (antibody, V domains shown) VH: QVQLKQSGAELVRPGASVKLSCKASGYTFTDYYINWVKQRPGQGLEWIARIYPGSGNTYYNEKFKGKATLTAEKSSSTAYMQLSSLTSEDSAVYFCARNYYISSPWFAYWGQGTLVTVSS VL: DIVMTQSQKFMSTSVGDRVSVTCKASQNVGPNVAWYQQKPGQSPKALIYSASYRYSGVPDRFTGSGSGTDFTLTISNVQSEDLADYFCQQYNRYPLTFGAGTKLELKR | no binding (tested: about 20 nM (log10 about 1.3)) | ≤ 500 | no binding (tested: about 20 nM (log10 about 1.3)) | 1.1 | 0.059 | –
h4D5-19-1-NA Fab (VH-19 and VL-1-NA) (Fab, V domains shown, Humanized monovalent Fab; also called 4D5-NA mutant) VH: QVQLVQSGAEVKKPGASVKVSCKASGYTFTTDDINWVRQAPGQGLEWIGWIYPRDDRTKYNDKFKDRATLTVDTSSNTAYMELSSLRSEDTAVYYCSSLEDTYWGQGTLVTVSS VL: DIVMTQSPDSLAVSLGERATINCKSSQSLLASRTRKNYLAWYQQKPGQPPKLLIYWASTRESGVPDRFSGSGSGTDFTLTISSLQAEDVAVYYCKQSYNLYTFGQGTKVEIKR | – | – | – | – | – | 0.122
h4D5-19-1-NQ Fab (VH-19 and VL-1-NQ) (Fab, V domains shown, also called 4D5-NQ mutant) VH: QVQLVQSGAEVKKPGASVKVSCKASGYTFTTDDINWVRQAPGQGLEWIGWIYPRDDRTKYNDKFKDRATLTVDTSSNTAYMELSSLRSEDTAVYYCSSLEDTYWGQGTLVTVSS VL: DIVMTQSPDSLAVSLGERATINCKSSQSLLQSRTRKNYLAWYQQKPGQPPKLLIYWASTRESGVPDRFSGSGSGTDFTLTISSLQAEDVAVYYCKQSYNLYTFGQGTKVEIKR | – | – | – | – | – | 0.732
h4D5-19-1-ST Fab (VH-19 and VL-1-ST) (Fab, V domains shown, also called 4D5-ST mutant) VH: QVQLVQSGAEVKKPGASVKVSCKASGYTFTTDDINWVRQAPGQGLEWIGWIYPRDDRTKYNDKFKDRATLTVDTSSNTAYMELSSLRSEDTAVYYCSSLEDTYWGQGTLVTVSS VL: DIVMTQSPDSLAVSLGERATINCKSSQSLLNTRTRKNYLAWYQQKPGQPPKLLIYWASTRESGVPDRFSGSGSGTDFTLTISSLQAEDVAVYYCKQSYNLYTFGQGTKVEIKR | – | – | – | – | – | 0.151
h10D12-45-21-DA Fab (VH-45 and VL-21-DA) (Fab, V domains shown, also called 10D12-DA mutant) VH: QIQLVQSGSELKKPGASVKVSCKASGYIFTSYGMSWVRQAPGKGLKWMGWINTYSGVPTYADDFKGRFVFSLDTSVRTPYLQISSLKAEDTAVYFCARGGEAMDYWGQGTLVTVSS VL: DVLMTQTPLSLSVTPGQPASISCKSSQSLLDSAGKTYLNWLLQRPGQSPKRLIYLVSKLDSGVPDRFSGSGSGTDFTLKISRVEAEDVGVYYCWQGTHFPWTFGQGTKVEIKR | – | – | – | – | – | 0.294
MASP-3 mAb 1E7 (mouse-human chimeric IgG4) (antibody, V domains shown) VH: QVQLKQSGPELARPWASVKISCQAFYTFSRRVHFAIRDTNYWMQWVKQRPGQGLEWIGAIYPGNGDTSYNQKFKGKATLTADKSSSTAYMQLSSLTSEDSAVYYCASGSHYFDYWGQGTTLTVSS VL: DIQLTQSPAILSVSPGERVSFSCRASQSIGTSIHWYQQRTNGSPRLLIKYASESISGIPSRFSGSGSGTDFTLSINSVESEDIADYYCQQSNSWPYTFGGGTKLEIKR | – | ≤ 500 | – | 117 | 0.112 | –
